This is an account of results in patent CN1421459A.

In test [1] the target is 人T细胞CD3 (human). As to the kind of experiment: cell-based or functional assay.
Test [2] has as its target 人T细胞CD3 (human). As to the kind of experiment: fluorescence staining, flow cytometry, antibody 1 μg/ml; cells not named.
For test [3], the target named is 人T细胞CD3 (human). The test can be described thus: fluorescence staining, flow cytometry, antibody 0.1 μg/ml; cells not named. In general terms: Flow cytometry measures light scatter and fluorescence of single cells or particles in a stream.
The target of test [4] is 人T细胞CD3 (human). As to the kind of experiment: fluorescence staining, flow cytometry, antibody 10 μg/ml; cells not named.
Test [5] has as its target 人T细胞CD3 (human). The test can be described thus: fluorescence staining and flow cytometry on CD3-positive HPBLL or Jurkat cells, compared with mOKT3 (Fig. 3).
Test [6] deals with 人T细胞CD3 (human). As to the kind of experiment: flow cytometry on human PBMC, unlabelled huGD3 competing with saturating FITC-mGD3; calculated by the formula [X]-[mGD3]=(1/Kx)-(1/Ka).

Sequence of 人T细胞CD3 (human) (P07766 23-207, chain 1 of 4): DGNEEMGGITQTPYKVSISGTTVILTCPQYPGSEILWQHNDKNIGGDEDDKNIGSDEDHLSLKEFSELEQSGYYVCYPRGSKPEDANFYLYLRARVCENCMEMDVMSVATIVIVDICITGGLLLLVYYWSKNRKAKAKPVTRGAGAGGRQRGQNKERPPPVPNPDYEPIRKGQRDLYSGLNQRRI
Sequence of 人T细胞CD3 (human) (P09693 23-182, chain 2 of 4, further chain): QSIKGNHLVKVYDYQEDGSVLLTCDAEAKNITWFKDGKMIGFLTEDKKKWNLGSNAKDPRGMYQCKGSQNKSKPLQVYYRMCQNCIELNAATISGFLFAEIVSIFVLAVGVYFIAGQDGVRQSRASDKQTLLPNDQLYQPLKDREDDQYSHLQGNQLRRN
Sequence of 人T细胞CD3 (human) (P04234 22-171, chain 3 of 4, further chain): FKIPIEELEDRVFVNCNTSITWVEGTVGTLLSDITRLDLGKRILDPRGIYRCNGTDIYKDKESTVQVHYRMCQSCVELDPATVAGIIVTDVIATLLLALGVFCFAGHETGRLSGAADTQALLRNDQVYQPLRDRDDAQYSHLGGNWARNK
Sequence of 人T细胞CD3 (human) (P20963 22-164, chain 4 of 4, further chain): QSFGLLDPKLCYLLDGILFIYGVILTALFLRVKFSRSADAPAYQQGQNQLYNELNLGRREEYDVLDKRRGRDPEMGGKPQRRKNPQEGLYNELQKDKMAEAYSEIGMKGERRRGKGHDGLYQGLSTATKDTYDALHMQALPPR

B1: 人源化抗体huGD3 (antibody, human IgG1, V domains shown)
VH: QVQLVQSGGGVVQPGRSLRLSCKASGYTFTSYTMHWVRQAPGKGLEWIGYINPSSGYTKYNQKFKDRFTISADNSKSTAFLQMDSLRPEDTAVYYCARWQDYDVYFDYWGQGTPVTVSS
VL: DIVLTQSPSSLSASVGDRVTITCRASSSVSYMHWYQQTPGKAPKPWIYATSNLASGVPSRFSGSGSGTDYTFTISSLQPEDIATYYCQQWSSNPPTFGQGTKLQITR
As to B1, in the test with 人T细胞CD3 (human) [1], the CD3调变(%), antibody 10^1 ng/ml, human PBMC, 37°C 24 h was found to be 13.6%; the CD3调变(%), antibody 10^2 ng/ml, human PBMC, 37°C 24 h came out at 56.9%; the CD3调变(%), antibody 10^3 ng/ml, human PBMC, 37°C 24 h is 70%; the CD3调变(%), antibody 10^4 ng/ml, human PBMC, 37°C 24 h amounted to 85.4%. In the test with 人T细胞CD3 (human) [1], this molecule displayed a CD3调变(%), antibody 10^5 ng/ml, human PBMC, 37°C 24 h of 85.6%; a CD3调变(%), antibody 10^-1 ng/ml, human PBMC, 37°C 24 h of 9.52%; a CD3调变(%), antibody column printed '10' (probably 10^0) ng/ml, human PBMC, 37°C 24 h of 13.2%. Further, the MFI in the test with 人T细胞CD3 (human) [2] amounted to 76 MFI. This molecule displayed an MFI in the test with 人T细胞CD3 (human) [3] of 55 MFI. Moreover, in the test with 人T细胞CD3 (human) [4], the MFI worked out at 97 MFI. The 亲和力 relative to mOKT3 (orders of magnitude) with 人T细胞CD3 (human) [5] is 2 数量级. For the same molecule, the Ka with 人T细胞CD3 (human) [6] is 1.6e+09 M⁻¹.
